{
  "source": "paper PMC6959358",
  "test_in_all_cases": "co-immunoprecipitation (DYK-antibody beads) with immunoblot quantification",
  "key": {"tropomyosin": {"target": "tropomyosin (UniProt P09493)", "sequence (P09493 whole entry)": "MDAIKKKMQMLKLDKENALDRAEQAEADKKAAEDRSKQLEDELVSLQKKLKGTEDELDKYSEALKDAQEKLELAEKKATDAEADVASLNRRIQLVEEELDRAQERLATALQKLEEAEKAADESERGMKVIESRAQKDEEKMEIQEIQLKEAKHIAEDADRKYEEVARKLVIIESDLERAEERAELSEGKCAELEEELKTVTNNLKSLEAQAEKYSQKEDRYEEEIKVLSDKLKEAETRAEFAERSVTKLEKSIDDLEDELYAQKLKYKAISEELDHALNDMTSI", "settings": "TnT-DYK expressed in HEK cells, immobilized on DYK-antibody beads, incubated with healthy control iPSC-CM lysate; n = 5; DYK negative control subtracted …; parent: est. 1.0; read off a plot"}, "PKA": {"target": "PKA", "settings": "TnT-DYK expressed in HEK cells, immobilized on DYK-antibody beads, incubated with healthy control iPSC-CM lysate; n = 4; DYK negative control subtracted …; parent: est. 1.0; read off a plot"}, "troponin I": {"target": "troponin I (UniProt P19429)", "sequence (P19429 whole entry)": "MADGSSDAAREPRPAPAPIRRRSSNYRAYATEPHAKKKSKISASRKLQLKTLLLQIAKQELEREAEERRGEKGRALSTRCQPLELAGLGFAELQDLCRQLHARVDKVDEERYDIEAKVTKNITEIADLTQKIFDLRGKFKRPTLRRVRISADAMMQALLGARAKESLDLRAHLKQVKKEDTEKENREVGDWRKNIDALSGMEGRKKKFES", "settings": "TnT-DYK expressed in HEK cells, immobilized on DYK-antibody beads, incubated with healthy control iPSC-CM lysate; n = 5; DYK negative control subtracted …; parent: est. 1.0; read off a plot"}, "troponin C": {"target": "troponin C (UniProt P63316)", "settings": "TnT-DYK expressed in HEK cells, immobilized on DYK-antibody beads, incubated with healthy control iPSC-CM lysate; n = 6; DYK negative control subtracted …; parent: est. 1.0; read off a plot"}},
  "data": [
    {"substance": "TnT-WT-DYK (human cardiac troponin T, wild type, flag (DYK)-tagged) R173W", "values": [
      {"measurement": "ratio to parent", "setting": "tropomyosin", "result": 0.57},
      {"measurement": "ratio to parent", "setting": "PKA", "result": 0.42},
      {"measurement": "ratio to parent", "setting": "troponin I", "result": 0.73},
      {"measurement": "ratio to parent", "setting": "troponin C", "result": 0.78}
    ]}
  ]
}
